Reference: IntAct's records for PubMed 17392269

B1: Protein Pixie (Drosophila melanogaster (Fruit fly)), Q9VSS1 (parent)
chain: MSRRKENEEVDKQTRIAIVSDDKCKPKRCRQECKKTCPVVRMGKLCIEVTPTSKIASLSEELCIGCGICVKKCPFEAITIINLPSNLEKHTTHRYSKNSFKLHRLPIPRPGEVLGLVGQNGIGKSTALKILAGKQKPNLGKYANPPDWTEILSYFRGSELQNYFTKILEDNLKALVKPQYVDQIPKAVRGAVGDLLDKKDERELQTKICEMLDLSHIRDREIAQLSGGELQRFAIAMVCIQNADIFMFDEPSSYLDVKQRLNAALTIRSLLHPTKFIIVVEHDLSVLDYLSDFICCLYGVPGCYGVVTMPFSVREGINIFLDGFVPTENMRFRTESLTFKVSESATEEEIKRMNHYVYPAMVKTLGKFELTVEKGHFSDSEILVLLGENGTGKTTFIRMLAGNLQPDGEVELPMLNISYKPQKISPKFQNHVRHLLHDKIRDAYVHPQFIADVMKPMKIEEIMDQEVQNLSGGELQRVALVLCLGKPADVYLIDEPSAYLDSEQRLVAAKVIKRYILHAKKTGFVVEHDFIMATYLADRVIVIEGQPSVKTTAFSPQSLLNGMNRFLELLGITFRRDPNNFRPRINKNNSVKDTEQKRSGQFFFLEDEACN
partner: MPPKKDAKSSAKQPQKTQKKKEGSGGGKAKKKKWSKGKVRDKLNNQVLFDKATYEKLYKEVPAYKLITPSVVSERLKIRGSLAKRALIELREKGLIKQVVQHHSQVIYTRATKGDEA

Variants of: B1
Details: with rs25_drome RpS25, P48588

Row | effect of a mutation on the interaction | Variant
1 | increasing interaction | E503Q
